Measured values published in publication PMC5095173, “Disulfide-activated protein kinase G Iα regulates cardiac diastolic relaxation and fine-tunes the Frank–Starling response” (Nature Communications, 2016).

Assays:
[1] = test system: PKGIα (analogue-sensitive C42S/M438G), cGMP-activated; assay: Chemical genetic phosphoproteomic screen, cGMP-activated PKGIα C42S/M438G versus unactivated control; type: biochemical, human PKGIα; substrates in rat heart homogenate; details: control = PKGIα C42S/M438G
Procedure, shortened: (§1)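 Substrates in rat left-ventricle homogenate (20 mg ml) are labelled by engineered Met438Gly PKGIα given a bulky N6-alkylated ATPγS analogue, either as disulfide-activated M438G (oxidized, DTT-free) or as cGMP-activated C42S/M438G. Covalent capture and LC–MS/MS identify sites relative to unactivated kinase.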

[2] = test system: PKGIα (analogue-sensitive M438G), disulfide-activated; assay: Chemical genetic phosphoproteomic screen, disulfide-activated PKGIα M438G versus unactivated control; type: biochemical, human PKGIα; substrates in rat heart homogenate; details: control = PKGIα C42S/M438G
Procedure, shortened: as §1

Row | Molecule | log2 fold change cGMP vs Control [1] | log2 fold change Disulfide vs Control [2]
1 | Ptrf pT304 (protein, UniProt P85125 1-392, looked up, phosphorylated at T304) Caveolae-associated protein 1: MEDVTLHIVERPYSGYPDASSEGPEPTPGEARATEEPSGTGSDELIKSDQVNGVLVLSLLDKIIGAVDQIQLTQAQLEERQAEMEGAVQSIQGELSKLGKAHATTSNTVSKLLEKVRKVSVNVKTVRGSLERQAGQIKKLEVNEAELLRRRNFKVMIYQDEVKLPAKLSVSKSLKESEALPEKEGDELGEGERPEEDAAAIELSSDEAVEVEEVIEESRAERIKRSGLRRVDDFKKAFSKEKMEKTKVRTRENLEKTRLKTKENLEKTRHTLEKRMNKLGTRLVPVERREKLKTSRDKLRKSFTPDHVVYARSKTAVYKVPPFTFHVKKIREGEVEVLKATEMVEVGPDDDEVGAERGAETDLLRGSSPDVHTLLEITEESDAVLVDKSDSD | 3.045 | 1.3031
2 | Ptrf pS171 (protein, UniProt P85125 1-392, looked up, phosphorylated at S171) Caveolae-associated protein 1: MEDVTLHIVERPYSGYPDASSEGPEPTPGEARATEEPSGTGSDELIKSDQVNGVLVLSLLDKIIGAVDQIQLTQAQLEERQAEMEGAVQSIQGELSKLGKAHATTSNTVSKLLEKVRKVSVNVKTVRGSLERQAGQIKKLEVNEAELLRRRNFKVMIYQDEVKLPAKLSVSKSLKESEALPEKEGDELGEGERPEEDAAAIELSSDEAVEVEEVIEESRAERIKRSGLRRVDDFKKAFSKEKMEKTKVRTRENLEKTRLKTKENLEKTRHTLEKRMNKLGTRLVPVERREKLKTSRDKLRKSFTPDHVVYARSKTAVYKVPPFTFHVKKIREGEVEVLKATEMVEVGPDDDEVGAERGAETDLLRGSSPDVHTLLEITEESDAVLVDKSDSD | 3.564 | -0.2713
3 | Ptrf pS302 (protein, UniProt P85125 1-392, looked up, phosphorylated at S302) Caveolae-associated protein 1: MEDVTLHIVERPYSGYPDASSEGPEPTPGEARATEEPSGTGSDELIKSDQVNGVLVLSLLDKIIGAVDQIQLTQAQLEERQAEMEGAVQSIQGELSKLGKAHATTSNTVSKLLEKVRKVSVNVKTVRGSLERQAGQIKKLEVNEAELLRRRNFKVMIYQDEVKLPAKLSVSKSLKESEALPEKEGDELGEGERPEEDAAAIELSSDEAVEVEEVIEESRAERIKRSGLRRVDDFKKAFSKEKMEKTKVRTRENLEKTRLKTKENLEKTRHTLEKRMNKLGTRLVPVERREKLKTSRDKLRKSFTPDHVVYARSKTAVYKVPPFTFHVKKIREGEVEVLKATEMVEVGPDDDEVGAERGAETDLLRGSSPDVHTLLEITEESDAVLVDKSDSD | 3.161 | 1.32
4 | Ptrf pS169 (protein, UniProt P85125 1-392, looked up, phosphorylated at S169) Caveolae-associated protein 1: MEDVTLHIVERPYSGYPDASSEGPEPTPGEARATEEPSGTGSDELIKSDQVNGVLVLSLLDKIIGAVDQIQLTQAQLEERQAEMEGAVQSIQGELSKLGKAHATTSNTVSKLLEKVRKVSVNVKTVRGSLERQAGQIKKLEVNEAELLRRRNFKVMIYQDEVKLPAKLSVSKSLKESEALPEKEGDELGEGERPEEDAAAIELSSDEAVEVEEVIEESRAERIKRSGLRRVDDFKKAFSKEKMEKTKVRTRENLEKTRLKTKENLEKTRHTLEKRMNKLGTRLVPVERREKLKTSRDKLRKSFTPDHVVYARSKTAVYKVPPFTFHVKKIREGEVEVLKATEMVEVGPDDDEVGAERGAETDLLRGSSPDVHTLLEITEESDAVLVDKSDSD | 4.006 | 2.165
5 | Ppp1r12a pT697 (protein, UniProt Q10728 1-1032, looked up, phosphorylated at T697) Protein phosphatase 1 …: MKMADAKQKRNEQLKRWIGSETDLEPPVVKRQKTKVKFDDGAVFLAACSSGDTDEVLKLLHRGADINYANVDGLTALHQACIDDNVDMVKFLVENGANINQPDNEGWIPLHAAASCGYLDIAEFLIGQGAHVGAVNSEGDTPLDIAEEEAMEELLQNEVNRQGVDIEAARKEEERIMLRDARQWLNSGHISDVRHAKSGGTALHVAAAKGYTEVLKLLIQAGYDVNIKDYDGWTPLHAAAHWGKEEACRILVDNLCDMETVNKVGQTAFDVADEDILGYLEELQKKQNLLHSEKRDKKSPLIESTANMENNQPQKTFKNKETLIIEPEKNASRIESLEQEKADEEEEGKKDESSCSSEEDEEDDSESEAETDKTKPMASVTNAHTASTQAAPAAVTTPTLSSNQGTPTSPVKKFPTSTTKISPKEEERKDESPASWRLGLRKTGSYGALAEITASKEAQKEKDTAGVIRSASSPRLSSSLDNKEKEKDNKGTRLAYVAPTIPRRLGSTSDIEEKENRESSNLRTSSSYTRRKWEDDLKKNSSINEGSTYHRSCSFGRRQDDLISCSVPSTTSTPTVTSAAGLQKSFLSSTSTTAKTPPGSSPAGTQSSTSNRLWAEDSTEKEKDSAPTAATILVAPTVVSAAASSTTALTTTTAGTLSSTSEVRERRRSYLTPVRDEESESQRKARSRQARQSRRSTQGVTLTDLQEAEKTIGRSRSTRTREQENEEKDKEEKEKQDKEKQEEKKESEVSREDEYKQKYSRTYDETYARYRPVSTSSSSTPSSSSLSTLGSSLYASSQLNRPNSLVGITSAYSRGLTKDNEREGEKKEEEKEGEDKSQPKSIRERRRPREKRRSTGVSFWTQDSDENEQERQSDTEDGSSKRDTQTDSVSRYDSSSTSSSDRYDSLLGRSASYSYLEERKPYGSRLEKDDSTDFKKLYEQILAENEKLKAQLHDTNMELTDLKLQLEKATQRQERFADRSLLEMEKRERRALERRISEMEEELKMLPDLKADNQRLKDENGALIRVISKLSK | 0.8734 | 0.1684
6 | Serbp1 pS391 (protein, UniProt Q9CY58 1-407, looked up, phosphorylated S391) SERPINE1 mRNA-binding protein …: MPGHLQEGFGCVVTNRFDQLFDDESDPFEVLKAAENKKKEAGGGGVGGPGAKSAAQAAAQTNSNAAGKQLRKESQKDRKNPLPPSVGVADKKEETQPPVALKKEGIRRVGRRPDQQLQGDGKLIDRRAERRPPRERRFEKPLEEKGEGGEFSVDRPIIERPIRGRGGLGRGRGGRGRGMGRGDGFDSRGKREFDRHSGSDRSSFSHYSGLKHEDKRGGSGSHNWGTVKDELTESPKYIQKQISYNCSDLDQSNVTEETPEGEEHPVADTENKENEVEEVKEEGPKEMTLDEWKAIQNKDRAKVEFNIRKPNEGADGQWKKGFVLHKSKSEEAHAEDSVMDHHFRKPANDITSQLEINFGDLGRPGRGGRGGRGGRGRGGRPNRGSRTDKSSASAPDVDDPEAFPALA | 6.458 | 3.516
7 | Ndrg2 pS332 (protein, UniProt Q8VBU2 2-371, looked up, phosphorylated at S332) Protein NDRG2: AELQEVQITEEKPLLPGQTPEAAKEAELAARILLDQGQTHSVETPYGSVTFTVYGTPKPKRPAIFTYHDVGLNYKSCFQPLFQFGDMQEIIQNFVRVHVDAPGMEEGAPVFPLGYQYPSQDQLADMIPCILQYLNFSTIIGVGVGAGAYILSRYALNHPDTVEGLVLINIDPNAKGWMDWAAHKLTGLTSSIPEMILGHLFSQEELSGNSELIQKYRSLITHAPNLENIELYWNSYNNRRDLNFERGGEMTLKCPVMLVVGDQAPHEDAVVECNSKLDPTQTSFLKMADSGGQPQLTQPGKLTEAFKYFVQGMGYMASSCMTRLSRSRTASLTSAASIDGSRSRSRTLSQSSESGTLPSGPPGHTMEVSC | 3.419 | 1.914
8 | Mylk3 pS444 (protein, UniProt E9PT87 1-786, looked up, phosphorylated at S444) Myosin light chain kinase 3: MSGVSEEDPEGLGPQGLPALGGACLVTVDKKLNVLTEKVDRLLHFQEDVTEKLQCVCQGMDHLEQGLHRLEASQELGLAGPGSTSPAAAQAAWPEVLELVRAVRQEGAQHGARLEALFKMVVAVDRAITLVGSTIQNSKVDDFILQGTVPWRKGSLADGPEENKEQAEVAGVKPKHVLNTGSVQAATSRALWEESQKQDTPVGTVEGLPLIIDTSLKGADLTQAGASLRQGVEALDPGQEPPPTEAESRLPALASEDTGTTLELSVAIDRISEVLTSLRMSQSAGEGTSSSKPDCSEPGPQPLGPLTTDSDIHSDEGLPRISVRMREMTTPEELFETQGGSPIGSAEAPGPGTVLEDQIPKGARPFPPLPKRSCNNGGASAEEATGPGAEPIRGPSLVTRDWRDEPVGTTDLQQGRDPGAVSPEPGKDHAAQGPGRTEAGRRVSSAAEAAIVVLDDSAAPPAPFEHRVVSIKDTLISTSYTVSQHEVLGGGRFGQVHRCTERSTGLALAAKIIKVKNIKDREDVKNEINIMNQLSHVNLIQLYDAFESKNSFTLIMEYVDGGELFDRITDEKYHLTELDVVLFTRQICEGVHYLHQHYILHLDLKPENILCVSQTGHQIKIIDFGLARRYKPREKLKVNFGTPEFLAPEVVNYEFVSFPTDMWSVGVITYMLLSGLSPFLGETDAETMNFIVNCSWDFDADTFKGLSEEAKDFVSRLLVKEKSCRMSATQCLKHEWLNHLIAKASGSNVRLRSQLLLQKYMAQRKWKKHFHVVTAVNRLRKFPTCP | 3.077 | 0.1624
9 | Ppp1r2 pT21 (protein, UniProt P50411 2-205, looked up, phosphorylated at T21) Protein phosphatase inhibitor …: AASTASHRPIKGILKNKTSTTSSVVASAEQPRRTVEEELSKKSQKWDEMNILATYHPADKDYGLMKIDEPDTPYHNMIGDDEDVCSDSEGNEVMTPEILAKKLAAAEGSEPKFRTREQESSGEEDNDLSPEEREKKRQFEMKRKLHYNEGLNIKLARQLISKDLHDDDEDEEMSETADADSMNIEESNQGSTAGDHLQHKSQSS | 5.158 | 1.627
